Results from patent US20230127694A1, “NEUROPROTECTIVE PEPTIDE” (published 2023).
Non-standard residues stand in square brackets, D forms with d. No end group written: not given here.

Biological target: ERK1 MAP kinase (MAPK3), mouse (mouse, UniProt Q63844)
Experiment: cell-based or functional assay

Binder: Ac-GRKKRRQRRRPPQGGGGGEPRRTEGVGPGVPGEVEMVKGQPFD[dV] [CPP-RB5]
- EC50 of phospho-ERK positive cells in striatal slices (immunohistochemistry, dose response): 3.4 µM
